Patent US20130236470A1

What was measured:
[1] = biological target: HLA-DR expressed by L428 cells (human); assay: flow cytometry on L428 cells, antibody 31.2 ng/mL
[2] = biological target: HLA-DR expressed by L428 cells (human); assay: flow cytometry on L428 cells, antibody 0.0 ng/mL (background)
[3] = biological target: HLA-DR expressed by L428 cells (human); assay: flow cytometry on L428 cells, antibody 15.6 ng/mL
[4] = biological target: HLA-DR expressed by L428 cells (human); assay: flow cytometry on L428 cells, antibody 125.0 ng/mL
[5] = biological target: HLA-DR expressed by L428 cells (human); assay: flow cytometry on L428 cells, antibody 250.0 ng/mL
[6] = biological target: HLA-DR expressed by L428 cells (human); assay: flow cytometry on L428 cells, antibody 62.5 ng/mL
[7] = biological target: HLA-DR expressed by L428 cells (human); assay: flow cytometry on L428 cells, antibody 0.98 ng/mL
[8] = biological target: HLA-DR expressed by L428 cells (human); assay: flow cytometry on L428 cells, antibody 1.95 ng/mL
[9] = biological target: HLA-DR expressed by L428 cells (human); assay: flow cytometry on L428 cells, antibody 7.8 ng/mL
[10] = biological target: HLA-DR expressed by L428 cells (human); assay: flow cytometry on L428 cells, antibody 3.9 ng/mL

Ability to bind (average strength) [1]: 928 | Ability to bind (average strength) [2]: 129 | Ability to bind (average strength) [3]: 694 | Ability to bind (average strength) [4]: 2420 | Ability to bind (average strength) [5]: 3270 | Ability to bind (average strength) [6]: 1610 | Ability to bind (average strength) [7]: 181 | Ability to bind (average strength) [8]: 230 | Ability to bind (average strength) [9]: 430 | Ability to bind (average strength) [10]: 339
Substance: commercially available antibody (clone name: LN3) known to bind to HLA-DR
